Consider 1 protein from paper PMC12282641.

Data set [1] is described as follows: iATPSnFR1.0 imaging, hippocampal neurons, 100 AP 10 Hz. To be noted: glycan lost; control: WT-HK1-BFP.
Data set [2] can be described thus: anti-HK1 blot of HEK293T lysates. The conditions noted are these: glycan lost; control: WT-HK1.
The nature of data set [3]: multi-electrode array, rat cortical neurons. The conditions noted are these: glycan lost; control: WT-HK1.
Data set [4] is described as follows: HYlight FBP sensor, axons, 100 AP 10 Hz. The conditions noted are these: glycan lost; control: WT-HK1-FLAG.
Data set [5] in a line: GCaMP6s imaging, 100 AP 10 Hz. The conditions noted are these: glycan lost; control: WT-HK1-BFP.
A short description of data set [6]: fractionation blots for Aldo A, PGK, PKM2, HEK293T. To be noted: glycan lost; control: WT-HK1 cells, response to OGT + Thiamet-G.

B1: Hexokinase 1 (HK1): T259A (protein)
parent chain: MIAAQLLAYYFTELKDDQVKKIDKYLYAMRLSDETLIDIMTRFRKEMKNGLSRDFNPTATVKMLPTFVRSIPDGSEKGDFIALDLGGSSFRILRVQVNHEKNQNVHMESEVYDTPENIVHGSGSQLFDHVAECLGDFMEKRKIKDKKLPVGFTFSFPCQQSKIDEAILITWTKRFKASGVEGADVVKLLNKAIKKRGDYDANIVAVVNDTVGTMMTCGYDDQHCEVGLIIGTGTNACYMEELRHIDLVEGDEGRMCINTEWGAFGDDGSLEDIRTEFDREIDRGSLNPGKQLFEKMVSGMYLGELVRLILVKMAKEGLLFEGRITPELLTRGKFNTSDVSAIEKNKEGLHNAKEILTRLGVEPSDDDCVSVQHVCTIVSFRSANLVAATLGAILNRLRDNKGTPRLRTTVGVDGSLYKTHPQYSRRFHKTLRRLVPDSDVRFLLSESGSGKGAAMVTAVAYRLAEQHRQIEETLAHFHLTKDMLLEVKKRMRAEMELGLRKQTHNNAVVKMLPSFVRRTPDGTENGDFLALDLGGTNFRVLLVKIRSGKKRTVEMHNKIYAIPIEIMQGTGEELFDHIVSCISDFLDYMGIKGPRMPLGFTFSFPCQQTSLDAGILITWTKGFKATDCVGHDVVTLLRDAIKRREEFDLDVVAVVNDTVGTMMTCAYEEPTCEVGLIVGTGSNACYMEEMKNVEMVEGDQGQMCINMEWGAFGDNGCLDDIRTHYDRLVDEYSLNAGKQRYEKMISGMYLGEIVRNILIDFTKKGFLFRGQISETLKTRGIFETKFLSQIESDRLALLQVRAILQQLGLNSTCDDSILVKTVCGVVSRRAAQLCGAGMAAVVDKIRENRGLDRLNVTVGVDGTLYKLHPHFSRIMHQTVKELSPKCNVSFLLSEDGSGKGAALITAVGVRLRTEASS
B1: the “other: axonal ATP recovery after stimulation” value in data set [1] is reported as “abolishes”. In addition, in data set [2], the expression_or_secretion entry is reported as “no change”. Besides, the “other: neuronal network activity” value in data set [3] was “decreases”. Besides, in data set [4], the “other: activity-evoked glycolysis (FBP level)” value is “abolishes”. For the same protein, the “other: presynaptic calcium dynamics” value in data set [5] is recorded as “no change”. In data set [6], the “other: glycolytic enzyme recruitment to mitochondria” value is given as “abolishes”.
